How the values were obtained:
Assay type in all cases: in vivo, human
[1] = system: women with LIV-1-positive, unresectable, locally advanced or metastatic breast cancer (LA/MBC); test: Phase 1 study of SGN-LIV1A: safety and tolerability
Description: (§1) This ongoing, phase 1 study evaluated safety, tolerability, pharmacokinetics, and anti-tumor activity of SGN-LIV1A (q3wks IV) in women with LIV-1-positive, unresectable, locally advanced or metastatic breast cancer (LA/MBC) (NCT01969643). Patients with measurable disease and >2 prior cytotoxic regimens for LA/MBC were eligible. Patients with ≥Grade 2 neuropathy were excluded. Response was assessed per RECIST v1.1; pts with stable disease (SD) or better could continue treatment until disease progression or intolerable toxicity. At completion of dose escalation in hormone receptor-positive/HER2-negative (HR+/HER2−) and triple-negative (TN) patients, expansion cohorts were opened to further evaluate safety and antitumor activity of monotherapy in TN patients. Tumor biopsies were evaluated for LIV1 expression.
At the completion of dose escalation, multiple expansion cohorts for SGN-LIV1A monotherapy (Part A) treatment were opened to enroll up to 15 patients each with specific breast cancer subtypes at a recommended dose level to further define the safety and antitumor activity. Following an analysis of safety and activity in the 2.0 mg/kg versus 2.5 mg/kg dose cohorts, the recommended phase 2 dose was determined to be 2.5 mg/kg (maximum dose of 200 mg per cycle)

[2] = system: hormone receptor-positive/HER2-negative (HR+/HER2-) LIV-1-positive LA/MBC; test: Phase 1 study of SGN-LIV1A: anti-tumor activity per RECIST v1.1, HR+/HER2- patients; settings: 17 efficacy evaluable HR+/HER2- patients, dose escalation
Description: as §1

[3] = system: triple-negative (TN) LIV-1-positive LA/MBC; test: Phase 1 study of SGN-LIV1A: anti-tumor activity per RECIST v1.1, triple-negative patients
Description: as §1

[4] = system: patients with LIV-1-positive LA/MBC, weight greater than or equal to 80 kg; test: Phase 1 dose expansion continuation: safety of a total maximum dose of 250 mg per cycle, with or without GCSF; settings: 2.5 mg/kg, >=200 mg up to 250 mg per cycle
Description: This study is a continuation of the dose expansion cohort study for SGN-LIV1A monotherapy (Part A) of the phase 1 study described in Example 1, which includes data from 22 additional administrations of SGN-LIV1A (q3wks IV). Patients were as described in Example 1. These additional administrations were conducted to assess the safety of a total maximum dose of 250 mg per cycle. Patients were dosed at 2.5 mg/kg and each of these 22 additional administrations were greater than or equal to 200 mg per cycle due to the patients having a weight greater than or equal to 80 kg.

[5] = % of 69 patients, 0.5 to 2.8 mg/kg q3wks IV

Substance: SGN-LIV1A: anti-LIV-1 humanized antibody (hLIV22) conjugated to monomethyl auristatin E (MMAE) via a protease-cleavable valine-citrulline linker
- febrile neutropenic events or neutropenia-associated SAEs ([1]; 2.0 mg/kg (N=26)): no febrile neutropenic events or neutropenia-associated SAEs
- incidence of Grade 3 or higher neutropenia AEs ([1]; 2.5 mg/kg dose level of Part A (monotherapy)): 57%
- febrile neutropenic events or neutropenia-associated SAEs ([1]; 2.5 mg/kg, doses <=200 mg (N=18)): no febrile neutropenic events or neutropenia-associated SAEs
- patients experiencing SAEs associated with neutropenia ([1]; 2.5 mg/kg, doses >200 mg (N=11)): 5 of 11
- febrile neutropenia ([1]; 2.5 mg/kg, doses >200 mg (N=11), includes the one treatment related death due to sepsis): 2 of 11
- dose-limiting toxicities (DLTs) ([1]; 19 DLT-evaluable patients, doses of 0.5 to 2.8 mg/kg q3wks IV): No dose-limiting toxicities (DLTs) occurred
- treatment-related deaths ([1]; 69 patients, total dose exceeded 200 mg per cycle, no other treatment-related deaths on-study): one treatment-related death due to sepsis
- AEs >=Grade 3: anemia [1, 5]: 15%
- AEs >=Grade 3: neutropenia [1, 5]: 25%
- treatment-emergent AE: abdominal pain [1, 5]: 25%
- treatment-emergent AE: alopecia [1, 5]: 36%
- treatment-emergent AE: constipation [1, 5]: 30%
- treatment-emergent AE: decreased appetite [1, 5]: 33%
- treatment-emergent AE: diarrhea [1, 5]: 25%
- treatment-emergent AE: fatigue [1, 5]: 59%
- treatment-emergent AE: nausea [1, 5]: 51%
- treatment-emergent AE: peripheral neuropathy [1, 5]: 44%
- treatment-emergent AE: neutropenia ([1]; all grades, % of 69 patients, 0.5 to 2.8 mg/kg q3wks IV): 25%
- patients who discontinued treatment due to AEs ([1]; of 69 patients): Seven
- febrile neutropenia ([1]; of 69 patients, both had a total dose exceeding 200 mg per cycle): 2 patients
- incidence of Grade 3 or higher neutropenia AEs ([1]; overall monotherapy study population): 39%
- maximum tolerated dose ([1]; q3wks IV, not exceeded at the highest dose): ≥ 2.8 mg/kg
- patients with SD>=24 wks [2]: one
- disease control rate (DCR=CR+PR+SD) ([2]; 10 SD): 59%
- confirmed PR rate ([3]; 44 efficacy evaluable TN patients): 21%
- objective response rate (ORR) ([3]; 44 efficacy evaluable TN patients (dose escalation plus expansion cohorts), 14 PR): 32%
- DCR ([3]; 44 efficacy evaluable TN patients, 14 PR, 14 SD): 64%
- clinical benefit rate (CBR=CR+PR+SD>=24 weeks) ([3]; 44 efficacy evaluable TN patients, 16 patients): 36%
- median PFS ([3]; TN patients, 95% CI: 6.1, 17.1): 11.3 weeks
- administrations resulting in development of neutropenia ([4]; co-administered with GCSF, 7 administrations): none
- administrations resulting in development of neutropenia ([4]; not co-administered with GCSF, 5 of 15 administrations): 33.3%
